# Test results reported in patent publication US20220204638A1, “Combination Therapies Comprising Daratumumab, Bortezomib, Thalidomide and Dexamethasone and Their Uses” (Janssen Biotech, Inc., priority 2019, published 2022).
# How the values were obtained:
# [1] = system: multiple myeloma, prior PI and immunomodulatory agent; assay: EQUULEUS (NCT01998971) open-label trial, DARZALEX with pomalidomide and dexamethasone
# Procedure: In [sequence], patients receiving daratumumab combination treatment (n=97) were administered the first 16 mg/kg daratumumab dose at Week 1 split over two days i.e. 8 mg/kg on Day 1 and Day 2 respectively.
# Pomalidomide (4 mg once daily orally on Days 1-21 of repeated 28-day [4-week] cycles) was given with low dose oral or intravenous dexamethasone 40 mg/week (reduced dose of 20 mg/week for patients>75 years or BMI<18.5).
# The median patient age was 64 years (range: 35 to 86 years) with 8% of patients≥75 years of age. Patients in the study had received a median of 4 prior lines of therapy. Seventy-four percent (74%) of patients had received prior ASCT. Ninety-eight percent (98%) of patients received prior bortezomib treatment, and 33% of patients received prior carfilzomib. All patients received prior lenalidomide treatment, with 98% of patients previously treated with the combination of bortezomib and lenalidomide. Eighty nine percent (89%) of patients were refractory to lenalidomide and 71% refractory to bortezomib; 64% of patients were refractory to bortezomib and lenalidomide.
# [2] = system: relapsed or refractory multiple myeloma; assay: SIRIUS (NCT01985126) open-label DARZALEX monotherapy trial; assay type: in vivo, human
# Source text: (§1) Treatment continued until unacceptable toxicity or disease progression.
# The median patient age was 63.5 years (range: 31 to 84 years), 49% were male and 79% were Caucasian. Patients had received a median of 5 prior lines of therapy. […] Prior therapies included bortezomib (99%), lenalidomide (99%), pomalidomide (63%) and carfilzomib (50%).
# [3] = Clinical pharmacokinetic drug-drug interaction assessments; conditions: human, in vivo
# CD38 on red blood cells = molecular target: T1, CD38 on red blood cells (Homo sapiens, UniProt P28907); assay: Interference with Indirect Antiglobulin Test (Indirect Coombs test)
# T1 construct: endogenous in cells; host or cells: red blood cells (reagent RBCs used in serological testing)
# Source text: Daratumumab binds to CD38 on red blood cells (RBCs) and results in a positive Indirect Antiglobulin Test (Indirect Coombs test). Daratumumab-mediated positive indirect antiglobulin test may persist for up to 6 months after the last daratumumab infusion. Daratumumab bound to RBCs masks detection of antibodies to minor antigens in the patient's serum [see References (15)]. The determination of a patient's ABO and Rh blood type are not impacted [see Drug Interactions (7.1)].
# Daratumumab binds to CD38 on RBCs and interferes with compatibility testing, including antibody screening and cross matching. Daratumumab interference mitigation methods include treating reagent RBCs with dithiothreitol (DTT) to disrupt daratumumab binding [see References (15)] or genotyping. Since the Kell blood group system is also sensitive to DTT treatment, K-negative units should be supplied after ruling out or identifying alloantibodies using DTT-treated RBCs.
# [4] = Clinical pharmacokinetics of daratumumab; assay type: in vivo, human
# Source text: Daratumumab volume of distribution was 4.7±1.3 L as monotherapy and 4.4±1.5 L as combination therapy following administration of the approved dosage.
# Daratumumab clearance decreased with increasing dose and with multiple dosing.
# The effect of severe (total bilirubin>3 times ULN and any AST) hepatic impairment on daratumumab pharmacokinetics is unknown.
# NK cells = assay: Pharmacodynamics, NK cell counts; assay type: in vivo, human; conditions: peripheral whole blood and bone marrow
# Source text: NK cells express CD38 and are susceptible to daratumumab mediated cell lysis.
# [5] = system: relapsed and refractory multiple myeloma; assay: DARZALEX monotherapy safety, three open-label clinical trials (N=156); assay type: in vivo, human
# Source text: Serious adverse reactions were reported in 51 (33%) patients.
# Table 23 describes Grade 3-4 laboratory abnormalities reported at a rate of ≥10%.
# [6] = Immunogenicity, anti-daratumumab antibodies in clinical trials; assay type: in vivo, human
# Source text: As with all therapeutic proteins, there is the potential for immunogenicity. The detection of antibody formation is highly dependent on the sensitivity and specificity of the assay. Additionally, the observed incidence of antibody (including neutralizing antibody) positivity in an assay may be influenced by several factors including assay methodology, sample handling, timing of sample collection, concomitant medications, and underlying disease. For these reasons, comparison of the incidence of antibodies to daratumumab in the studies described below with the incidence of antibodies in other studies or to other products may be misleading. […] One patient administered DARZALEX as combination therapy, developed transient neutralizing antibodies against daratumumab. However, this assay has limitations in detecting anti-daratumumab antibodies in the presence of high concentrations of daratumumab; therefore, the incidence of antibody development might not have been reliably determined.
# [7] = Storage of diluted DARZALEX solution; assay type: physicochemical
# Source text: Prepare the solution for infusion using aseptic technique as follows: • Calculate the dose (mg), total volume (mL) of DARZALEX solution required and the number of DARZALEX vials needed based on patient actual body weight. • Check that the DARZALEX solution is colorless to pale yellow. […] Infusion bags/containers must be made of either polyvinylchloride (PVC), polypropylene (PP), polyethylene (PE) or polyolefin blend (PP+PE). Dilute under appropriate aseptic conditions. Discard any unused portion left in the vial. • Gently invert the bag/container to mix the solution. […] The diluted solution may develop very small, translucent to white proteinaceous particles, as daratumumab is a protein. […] (59° F.-77° F.) and in room light. Diluted solution may be kept at room temperature for a maximum of 15 hours (including infusion time). • If not used immediately, the diluted solution can be stored prior to administration for up to 24 hours at refrigerated conditions 2° C.-8° C. (36° F.-46° F.) and protected from light.
# multiple myeloma = assay: Clinical trials pooled, monotherapy and combination treatments (N=2,066); assay type: in vivo, human
# [8] = system: relapsed or refractory multiple myeloma; assay: GEN501 (NCT00574288) open-label dose escalation monotherapy trial; assay type: in vivo, human
# Source text: as §1
# Seventy-four percent of patients had received prior ASCT. Prior therapies included bortezomib (100%), lenalidomide (95%), pomalidomide (36%) and carfilzomib (19%).
substance,measurement,setting,value
"DARZALEX: IgG1κ human monoclonal antibody against CD38, HC SEQ ID NO: 9 and LC SEQ ID NO: 10",incidence of any grade infusion-related reactions,"[1]; combination treatment (n=97), first 16 mg/kg dose split over two days",42%
same,infusion reactions on Day 2 of Week 1,[1]; split first dose,4%
same,infusion reactions with subsequent infusions,[1]; split first dose,8%
same,Overall response rate (ORR),"[2]; Independent Review Committee, IMWG criteria",31 (29.2%)
same,Complete response (CR),[2]; in vivo,0
same,Partial response (PR),[2]; in vivo,18 (17.0%)
same,Stringent complete response (sCR),[2]; in vivo,3 (2.8%)
same,Very good partial response (VGPR),[2]; in vivo,10 (9.4%)
same,median duration of response,[2]; in vivo,7.4 months
same,median time to response,[2]; in vivo,1 month
same,"drug-drug interactions with lenalidomide, pomalidomide, bortezomib and dexamethasone",[3],no clinically relevant drug-drug interactions
same,persistence of positive indirect antiglobulin test after the last infusion,CD38 on red blood cells,up to 6 months
same,mean serum Cmax at end of weekly dosing compared to first dose,"[4]; approved recommended dosage, monotherapy or combination",2.7 to 3 fold
same,Terminal half-life,[4]; combination therapy vs monotherapy,similar
same,"trough serum concentration (Cmin) at end of weekly dosing, mean±SD",[4]; monotherapy,573 ± 332 µg/mL
same,"linear clearance, mean±SD","[4]; monotherapy, estimated",171.4 ± 95.3 mL/day
same,"terminal half-life associated with linear clearance, mean±SD","[4]; monotherapy, estimated",18 ± 9 days
same,pharmacokinetics in specific populations,"[4]; sex, age, mild and moderate hepatic impairment, renal impairment",No clinically significant differences
same,absolute counts and percentages of total and activated NK cells,NK cells,Decreases
same,Serious adverse reactions,[5]; 16 mg/kg monotherapy,33%
same,"Arthralgia, Any Grade","[5]; human, in vivo",17%
same,"Arthralgia, Grade 3","[5]; human, in vivo",0%
same,"Arthralgia, Grade 4","[5]; human, in vivo",0%
same,"Back pain, Any Grade","[5]; human, in vivo",23%
same,"Back pain, Grade 3","[5]; human, in vivo",2%
same,"Back pain, Grade 4","[5]; human, in vivo",0%
same,"Chills, Any Grade","[5]; human, in vivo",10%
same,"Chills, Grade 3","[5]; human, in vivo",0%
same,"Chills, Grade 4","[5]; human, in vivo",0%
same,"Constipation, Any Grade","[5]; human, in vivo",15%
same,"Constipation, Grade 3","[5]; human, in vivo",0%
same,"Constipation, Grade 4","[5]; human, in vivo",0%
same,"Cough, Any Grade","[5]; human, in vivo",21%
same,"Cough, Grade 3","[5]; human, in vivo",0%
same,"Cough, Grade 4","[5]; human, in vivo",0%
same,"Decreased appetite, Any Grade","[5]; human, in vivo",15%
same,"Decreased appetite, Grade 3","[5]; human, in vivo",1%
same,"Decreased appetite, Grade 4","[5]; human, in vivo",0%
same,"Diarrhea, Any Grade","[5]; human, in vivo",16%
same,"Diarrhea, Grade 3","[5]; human, in vivo",1%
same,"Diarrhea, Grade 4","[5]; human, in vivo",0%
same,"Dyspnea, Any Grade","[5]; human, in vivo",15%
same,"Dyspnea, Grade 3","[5]; human, in vivo",1%
same,"Dyspnea, Grade 4","[5]; human, in vivo",0%
same,"Fatigue, Any Grade","[5]; human, in vivo",39%
same,"Fatigue, Grade 3","[5]; human, in vivo",2%
same,"Fatigue, Grade 4","[5]; human, in vivo",0%
same,"Headache, Any Grade","[5]; human, in vivo",12%
same,"Headache, Grade 3","[5]; human, in vivo",1%
same,"Headache, Grade 4","[5]; human, in vivo",0%
same,"Hypertension, Any Grade","[5]; human, in vivo",10%
same,"Hypertension, Grade 3","[5]; human, in vivo",5%
same,"Hypertension, Grade 4","[5]; human, in vivo",0%
same,"Infusion reaction, Any Grade","[5]; human, in vivo",48%
same,"Infusion reaction, Grade 3","[5]; human, in vivo",3%
same,"Infusion reaction, Grade 4","[5]; human, in vivo",0%
same,"Musculoskeletal chest pain, Any Grade","[5]; human, in vivo",12%
same,"Musculoskeletal chest pain, Grade 3","[5]; human, in vivo",1%
same,"Musculoskeletal chest pain, Grade 4","[5]; human, in vivo",0%
same,"Nasal congestion, Any Grade","[5]; human, in vivo",17%
same,"Nasal congestion, Grade 3","[5]; human, in vivo",0%
same,"Nasal congestion, Grade 4","[5]; human, in vivo",0%
same,"Nasopharyngitis, Any Grade","[5]; human, in vivo",15%
same,"Nasopharyngitis, Grade 3","[5]; human, in vivo",0%
same,"Nasopharyngitis, Grade 4","[5]; human, in vivo",0%
same,"Nausea, Any Grade","[5]; human, in vivo",27%
same,"Nausea, Grade 3","[5]; human, in vivo",0%
same,"Nausea, Grade 4","[5]; human, in vivo",0%
same,"Pain in extremity, Any Grade","[5]; human, in vivo",15%
same,"Pain in extremity, Grade 3","[5]; human, in vivo",1%
same,"Pain in extremity, Grade 4","[5]; human, in vivo",0%
same,"Pneumonia, Any Grade","[5]; human, in vivo",11%
same,"Pneumonia, Grade 3","[5]; human, in vivo",6%
same,"Pneumonia, Grade 4","[5]; human, in vivo",0%
same,"Pyrexia, Any Grade","[5]; human, in vivo",21%
same,"Pyrexia, Grade 3","[5]; human, in vivo",1%
same,"Pyrexia, Grade 4","[5]; human, in vivo",0%
same,"Serious adverse reaction, general physical health deterioration","[5]; human, in vivo",3%
same,"Serious adverse reaction, pneumonia","[5]; human, in vivo",6%
same,"Serious adverse reaction, pyrexia","[5]; human, in vivo",3%
same,"Upper respiratory tract infection, Any Grade","[5]; human, in vivo",20%
same,"Upper respiratory tract infection, Grade 3","[5]; human, in vivo",1%
same,"Upper respiratory tract infection, Grade 4","[5]; human, in vivo",0%
same,"Vomiting, Any Grade","[5]; human, in vivo",14%
same,"Vomiting, Grade 3","[5]; human, in vivo",0%
same,"Vomiting, Grade 4","[5]; human, in vivo",0%
same,discontinuations due to adverse reactions,"[5]; human, in vivo",4%
same,treatment delay due to adverse reactions,"[5]; human, in vivo",15%
same,"Anemia, Any Grade",[5]; lab abnormality,45%
same,"Anemia, Grade 3",[5]; lab abnormality,19%
same,"Anemia, Grade 4",[5]; lab abnormality,0%
same,"Lymphopenia, Any Grade",[5]; lab abnormality,72%
same,"Lymphopenia, Grade 3",[5]; lab abnormality,30%
same,"Lymphopenia, Grade 4",[5]; lab abnormality,10%
same,"Neutropenia, Any Grade",[5]; lab abnormality,60%
same,"Neutropenia, Grade 3",[5]; lab abnormality,17%
same,"Neutropenia, Grade 4",[5]; lab abnormality,3%
same,"Thrombocytopenia, Any Grade",[5]; lab abnormality,48%
same,"Thrombocytopenia, Grade 3",[5]; lab abnormality,10%
same,"Thrombocytopenia, Grade 4",[5]; lab abnormality,8%
same,transient neutralizing antibodies against daratumumab,[6]; combination therapy,One patient
same,patients positive for anti-daratumumab antibodies,"[6]; of the 1,050 evaluable combination therapy patients",2
same,time diluted solution can be stored refrigerated,"[7]; 2-8 °C, protected from light",up to 24 hours
same,time diluted solution may be kept at room temperature,"[7]; 15-25 °C, including infusion time",≤ 15 h
same,Grade 3/4 infusion reaction at Week 2 or subsequent infusions,"multiple myeloma; human, in vivo",Less than 1%
same,"incidence of any grade infusion reactions, Week 2 infusion","multiple myeloma; human, in vivo",2%
same,"incidence of any grade infusion reactions, first (16 mg/kg, Week 1) infusion","multiple myeloma; human, in vivo",37%
same,"incidence of any grade infusion reactions, subsequent infusions (cumulative)","multiple myeloma; human, in vivo",6%
same,time after completing infusion within which nearly all reactions occurred,"multiple myeloma; human, in vivo",≤ 4 h
same,patients who experienced an infusion reaction,multiple myeloma; in clinical trials,approximately half
same,time after infusion at which infusion reactions occurred,multiple myeloma; prior to the introduction of post-infusion medication,up to 48 hours
same,Overall response rate,"[8]; 16 mg/kg, 42 patients",36%
same,number of CR,"[8]; 16 mg/kg, 42 patients",1
same,number of VGPR,"[8]; 16 mg/kg, 42 patients",3
same,median duration of response,[8]; in vivo,not estimable
same,median time to response,[8]; in vivo,1 month
